The record followed here is article PMC5309844.

This experiment deals with full-length recombinant human NR1 protein (human) (UniProt Q05586).

recombinant human PDI, sequence (P07237 18-508): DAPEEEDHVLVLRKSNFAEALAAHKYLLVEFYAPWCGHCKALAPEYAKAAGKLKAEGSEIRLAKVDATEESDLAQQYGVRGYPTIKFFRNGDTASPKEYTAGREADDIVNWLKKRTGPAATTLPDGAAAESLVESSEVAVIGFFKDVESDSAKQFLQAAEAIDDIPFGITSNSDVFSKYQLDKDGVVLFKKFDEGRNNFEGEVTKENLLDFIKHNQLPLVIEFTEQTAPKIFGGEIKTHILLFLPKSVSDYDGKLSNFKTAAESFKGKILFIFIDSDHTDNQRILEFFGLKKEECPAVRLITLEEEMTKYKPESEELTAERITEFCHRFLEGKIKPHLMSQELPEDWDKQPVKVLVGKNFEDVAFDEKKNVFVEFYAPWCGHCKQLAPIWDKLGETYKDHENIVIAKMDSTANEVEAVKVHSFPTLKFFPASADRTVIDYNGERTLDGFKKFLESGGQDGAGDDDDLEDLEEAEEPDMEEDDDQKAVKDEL

On to “recombinant human PDI (from UniProt P07237 18-508) (enzyme)”, for which the amount of thiols on recombinant NR1 protein after 2 h with recombinant PDI at room temperature (in vitro thiol reductase assay, modified biotin switch and Western blot), against vehicle turned out to be 3.2 fold.
